# Laboratory results published in US20250011869A1, “TLR3 INHIBITORS FOR USE IN THE TREATMENT OF DISEASES ASSOCIATED WITH CARDIOVASCULAR CALCIFICATION” (priority 2021, published 2025).
# Entries after “also recorded” stand apart in the source; their conditions may differ.
# Experiments:
# TLR3-RUNX2 pathway = test: Immunoblot of human dermal fibroblasts for the TLR3-RUNX2 pathway; type: cell-based; conditions: wild type and empty vector control cells; 5 μg/ml, 6 h
# Text: (§1) Human dermal fibroblasts WT and Tlr3^−/− were kindly provided by the Jean-Laurent Casanova group and cultivated in DMEM with 4.5 g/L glucose (Lonza, Basel, Switzerland), 10% FCS (Sigma, St. Louis, MO), penicillin, streptomycin and L-Glutamine. Human dermal fibroblasts CTR cells were provided by the Villunger group and cultivated in DMEM with 4.5 g/L glucose (Lonza, Basel, Switzerland), 10% FCS (Sigma, St. Louis, MO), penicillin, streptomycin and L-Glutamine.
# (§2) All cells were cultivated under standard conditions (37° C., supplied with 5% CO2). Passaging of the cells was performed at 70-90% confluency, and cells were only used until passage 7 as described previously^6. Polyinosinic: polycytidylic acid (Poly(I:C); Invivogen, San Diego, CA) was used to stimulate cells at a concentration of either 20 μg/mL or 5 μg/ml, depending on the assay. For blockade of TLR3, the commercially available dsRNA/TLR3 inhibitor ((R)-2-(3-Chloro-6-fluorobenzo [b] thiophene-2-carboxamido)-3-phenyl-propanoic acid) was used (Merck, Darmstadt, Germany) at a concentration of 1 μg/ml as described previously^1,7. LY294002 (Invivogen, San Diego, CA), a PI3K inhibitor, was used at a concentration of 10 μM. For blockade of IFNAR1, a specific blocking antibody (Invitrogen, Carlsbad, CA) was used at a concentration of 4 μg/ml. A stable HEK (human embryonic kidney) reporter cell line (TLR3/ISRE LUCPorter; Imgenex, USA) was purchased for luminometer assay experiments. Cells were cultivated according to the manufacturer's protocol in DMEM with 4.5 g/L glucose (Lonza, Switzerland), 10% FCS (Sigma, St. Louis, MO), penicillin/streptomycin, and 4 mM L-glutamine and […] puromycin (Gibco, USA) as selection agent. Reporter experiments were performed as described previously^8. For the protein expression SF21 cells were purchased at ThermoFisher (#11497013) and cultivated in Gibco™ Sf-900™ SFM supplemented with penicillin, streptomycin and L-Glutamine. In vitro stretch was applied using a Flexcell bioreactor (Flexcell International Corporation, Burlington, NC) applying 15% cyclic strain as described previously^9.
# Protein from tissue or cell lysates was extracted using a Radioimmunoprecipitation Assay Lysis Puffer (150 mM NaCl, 1% NP-40, 0.5% Sodium Deoxycholate, 0.1% SDS and 50 mM Tris (pH 8,0)). For the extraction of nuclear or cytosolic proteins the NE-PER™ Nuclear and Cytoplasmic Extraction Reagents Kit (ThermoScientific, #78835) was used.
# Protein was thereafter separated on SDS-polyacrylamide gels of different percentages and transferred to nitrocellulose membranes as described previously^18. After blocking with either 5% BSA in TBS 0.1% Tween, 5% milk in TBS 0.1% Tween or StartingBlock™ (TBS) Blocking buffer (ThermoScientific, #37542) membranes were incubated with primary antibodies listed in Table 2.
# TLR3 = TLR3 expression in valvular interstitial cells (immunoblot / RT-qPCR); type: cell-based, human; conditions: immunoblot; 20 μg/ml, 24 h or 48 h (FIG. 7A)
# Description: Valvular interstitial cells from patients undergoing aortic valve replacement or cardiac transplantation were isolated via collagen digestion as described previously^6. Valves were rinsed in EBSS and subsequently subjected to collagenase digestion (Sigma, St. Louis, MO; 2.5 mg/mL in M199) for 30 minutes at 37° C. Thereafter, tissue samples were vortexed and supernatant containing endothelial cells was removed. Again, collagenase was added to the remaining valve tissue (1 mg/mL) for 3 h at 37° C. For mechanical disintegration of the tissue, vortexing and repeated aspiration via a pipette was performed. The supernatant was transferred into a new tube and subjected to centrifugation (300 g for 8 minutes at 4° C.). Subsequently, cells were resuspended in M199 medium containing 10% fetal calve serum, penicillin, streptomycin, L-Glutamine and amphotericin B (2.5 mg/L).
# All cells were cultivated under standard conditions (37° C., supplied with 5% CO2). Passaging of the cells was performed at 70-90% confluency, and cells were only used until passage 7 as described previously^6. […]
# RT-PCR was performed as described previously^17. […] The result for the relative gene expression was calculated by the 2-DDCt method. Mean Ct values were calculated from double determinations and samples were considered negative if the Ct values exceeded 4017. […]
# TLR3 and IFN-β = test: RT-PCR of human dermal fibroblasts (wild type, empty vector control, Tlr3−/− CRISPR); type: cell-based; conditions: 5 μg/ml, 6 h
# Text: as §1, §2
# RT-PCR was performed as described previously^17. Total RNA was extracted from homogenized tissue or cell lysates using the Total RNA Miniprep Kit (New England BioLabs, Frankfurt, Germany) according to the manufacturer's instructions. We performed the PCR reaction in a final volume of 12.5 μL containing 2.5 μL of cDNA, 6.25 μL of Master Mix, 1 μL of fluorogenic hybridization probe, 10 μM of primer and 2.75 μL of distilled water. […] The result for the relative gene expression was calculated by the 2-DDCt method. Mean Ct values were calculated from double determinations and samples were considered negative if the Ct values exceeded 4017. […]
molecule,measurement,setting,value
"BGN: proteoglycan biglycan (BGN), a structural protein of the extracellular matrix (ECM) (protein) DEEASGAETTSGIPDLDSLPPTYSAMCPFGCHCHLRVVQCSDLGLKAVPKEISPDTTLLDLQNNDISELRKDDFKGLQHLYALVLVNNKISKIHEKAFSPLRKLQKLYISKNHLVEIPPNLPSSLVELRIHDNRIRKVPKGVFSGLRNMNCIEMGGNPLENSGFEPGAFDGLKLNYLRISEAKLTGIPKDLPETLNELHLDHNKIQAIELEDLLRYSKLYRLGLGHNQIRMIENGSLSFLPTLRELHLDNNKLSRVPAGLPDLKLLQVVYLHTNNITKVGVNDFCPVGFGVKRAYYNGISLFNNPVPYWEVQPATFRCVTDRLAIQFGNYKK",IFNAR1 level,TLR3-RUNX2 pathway,upregulation of IFNAR1
same,levels of osteoblastic transcription factor RUNX2,TLR3-RUNX2 pathway,increased levels
same,phosphorylation of IRF3,TLR3-RUNX2 pathway,phosphorylation of IRF3
same,TLR3 expression in VICs,TLR3,induces TLR3 expression in a dose-dependent manner; also recorded: induced TLR3 expression in VICs
same,transcription of TLR3 and IFN-β,TLR3 and IFN-β; Tlr3−/− fibroblasts,no response
same,transcription of TLR3 and IFN-β,TLR3 and IFN-β; wild type and empty vector control fibroblasts,induced transcription of TLR3 and IFN-β
